Measurements as given in patent publication US20110104152A1 (Genentech, published 2011).

Assays:
[1] = target: human FGFR4 polypeptide expressed in transfected rat L6 myoblasts (human, UniProt P22455 22-802); test: cell-based or functional assay
[2] = target: human FGFR1c polypeptide expressed in transfected rat L6 myoblasts (human, UniProt P11362 22-822); test: cell-based or functional assay
[3] = target: T1, FGFR4-Fc (recombinant polypeptide comprising a human FGFR4 extracellular domain fused to a human IgG1 Fc … (human, UniProt P22455 22-369)); test: ELISA, FGFR-Fc captured by anti-human IgG-Fc antibody, 2 µg/mL heparin, no Klotho-beta
T1 construct: extracellular domain; Bought reagent; also called FGFR4 fused to Fc fragment; catalog no; 685-FR-050, R&D Systems; not shown: human IgG1 Fc fragment
T1 sequence (looked up): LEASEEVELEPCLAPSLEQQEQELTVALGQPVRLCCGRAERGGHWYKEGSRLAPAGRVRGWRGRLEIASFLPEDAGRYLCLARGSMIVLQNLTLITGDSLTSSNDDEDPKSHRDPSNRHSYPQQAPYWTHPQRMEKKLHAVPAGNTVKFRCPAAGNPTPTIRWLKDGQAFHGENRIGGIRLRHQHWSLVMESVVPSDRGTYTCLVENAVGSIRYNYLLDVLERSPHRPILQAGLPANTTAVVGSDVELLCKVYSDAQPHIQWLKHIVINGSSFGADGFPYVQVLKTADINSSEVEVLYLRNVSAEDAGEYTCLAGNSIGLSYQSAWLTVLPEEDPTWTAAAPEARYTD
Method: Monoclonal antibodies specific for human IgG-Fc fragment (Jackson ImmunoResearch, West Grove, Pa., USA) were immobilized in the wells of Maxisorp™ flat-bottom 96-well plates (Nunc, Thermo Fisher Scientific, Rochester, N.Y.) by overnight incubation with 100 μl per well of 2 μg/ml antibody solution. Each well was then incubated with either 1 μg/ml of FGFR4—Fc (a recombinant polypeptide comprising a human FGFR4 extracellular domain fused to a human IgG₁ Fc fragment; catalog no. 685-FR-050, R&D Systems, Inc., Minneapolis, Minn.) or 1 μg/ml FGFR1c-Fc (a recombinant polypeptide comprising a human FGFR1c extracellular domain fused to a human IgG₁ Fc fragment; catalog no. 658-FR-050, R&D Systems).
The surface-immobilized FGFR4-Fc or FGFR1c-Fc polypeptides were incubated for 1 hr with native human FGF19-Flag polypeptide with a C-terminal epitope tag (See FGF19-Flag in Table 10, SEQ ID NO:237) at concentrations of 1 μg/mL, 0.4 μg/mL, 0.16 μg/mL, 0.064 μg/mL, 0.0256 μg/mL, 0.004096 μg/mL or 0.0016384 μg/mL, each with 2 μg/mL heparin, to allow binding of the FGF19 polypeptide to the receptor domain. […]

Chain of human FGFR1c polypeptide expressed in transfected rat L6 myoblasts (P11362 22-822): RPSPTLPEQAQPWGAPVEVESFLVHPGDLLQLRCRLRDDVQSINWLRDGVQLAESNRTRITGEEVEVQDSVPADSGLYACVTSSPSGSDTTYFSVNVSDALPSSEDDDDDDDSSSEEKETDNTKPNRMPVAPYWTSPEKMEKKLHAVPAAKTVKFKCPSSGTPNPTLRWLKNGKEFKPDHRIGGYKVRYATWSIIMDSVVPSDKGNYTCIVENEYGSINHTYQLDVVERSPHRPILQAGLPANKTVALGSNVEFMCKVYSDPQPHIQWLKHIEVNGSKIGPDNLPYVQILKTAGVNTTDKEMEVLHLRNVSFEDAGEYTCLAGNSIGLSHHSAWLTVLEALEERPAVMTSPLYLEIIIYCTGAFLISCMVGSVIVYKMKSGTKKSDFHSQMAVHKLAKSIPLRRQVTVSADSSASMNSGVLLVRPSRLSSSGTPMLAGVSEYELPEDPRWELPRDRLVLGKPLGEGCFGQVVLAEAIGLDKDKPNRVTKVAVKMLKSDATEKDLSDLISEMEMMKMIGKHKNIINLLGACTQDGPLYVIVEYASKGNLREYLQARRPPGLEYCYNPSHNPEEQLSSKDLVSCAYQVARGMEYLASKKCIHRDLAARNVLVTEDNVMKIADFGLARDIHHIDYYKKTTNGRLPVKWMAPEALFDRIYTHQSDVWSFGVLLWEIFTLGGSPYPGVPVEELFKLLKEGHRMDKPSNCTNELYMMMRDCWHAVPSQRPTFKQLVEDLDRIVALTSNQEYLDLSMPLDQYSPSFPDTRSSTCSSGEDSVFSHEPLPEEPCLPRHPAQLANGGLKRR

B1: chimeric FGF19 polypeptide cFGF21/19-2/Flag (ligand)
chain: HPIPDSSPLLQFGGQVRQRYLYTSGPHGLSSCFLRIRADGVVDCARGQSAHSLLEIKAVALRTVAIKGVHSVRYLCMGADGKMQGLLQYSEEDCAFEEEIRPDGYNVYRSEKHRLPVSLSSAKQRQLYKNRGFLPLSHFLPMLPMVPEEPEDLRGHLESDMFSSPLETDSMDPFGLVTGLEAVRSPSFEKDYKDDDDK
notes: also called chimeric FGF19-Flag polypeptide; FGF19v
- EC50 of dose-dependent activation of luciferase (GAL4-Elk1 reporter), L6 cells with FGFR4 and KLB [1]: 269 ng/mL
- EC50 of dose-dependent activation of luciferase (GAL4-Elk1 reporter), L6 cells with KLB and FGFR1c [2]: 22.7 ng/mL
- binding result [3]: no binding (tested: 1 µg/mL (highest concentration tested))
